Measurements reported in the DeepSol protein solubility set.

Assay: soluble on expression in E. coli; label from the status in PepcDB or PDB records

Sequence	soluble on expression in E. coli
MSLYTFKELKRATKQDTVSLPKLKVALLGDTATQLLATAIKGEGILRNYNIELWEAEYNQVERQIMDPTSDYYQFEPDYTIIFHSTHKLLEKHSLVNSDLQNKLADDRLDFVRLLCEQGIGRVIYYNYPEIEDTIWGSYATKVQSSFTYQLTKLNYELMNISQAYPNFFICNLAGISAKYGRNFMFDSSVYVNTEIILSLDALPIISSRTIDIIAAIQGKFKKCLILDLDNTIWGGVVGDDGWENIQVGHGLGIGKAFTEFQEWVKKLKNRGIIIAVCSKNNEGKAKEPFERNPEMVLKLDDIAVFVANWENKADNIRTIQRTLNIGFDSMVFLDDNPFERNMVREHVPGVTVPELPEDPGDYLEYLYTLNLFETASFSEDDKDRTKQYQIEAKRVSLQQSFTNEAEFLKSLDMVSEVKGFDKFNTPRVAQLSQRSNQFNLRTVRYTEAEIAAIESDLHYATFSFTLADRFGDNGLICVIILEKQDTETLFINTWFMSCRVLKRGMENFTLNTLVDYARSNGFKRFIGEYLPSAKNQMVEEHYPHLGFSKMEGGDNAARYVLDVETYEEKECYITKKEGHHHHHH	soluble
MSLYVSKLFTSQQWRELKLISYVTENADAIGVKDKELSKALNISMLTLQTCLTNMQFMKEVGGITYKNGYITIWYHQHCGLQEVYQKALRHSQSFKLLETLFFRDFNSLEELAEELFVSLSTLKRLIKKTNAYLMHTFGITILTSPVQVSGDEHQIRLFYLKYFSEAYKISEWPFGEILNLKNCERLLSLMIKEVDVRVNFTLFQHLKILSSVNLIRYYKGHSAVYDNKKTSQRFSQLIQSSLEFQDLSRLFHLKFGLYLDETTIAEMFSNHVNDQLEIGYAFDSIKQDSPTGCRKVTNWVHLLDELEIRLNLSVTNKYEVAVILHNTTVLKEEDITANYLFFDYKKSYLNFYKQEHPHLYKAFVAGVEKLMRSEKEPISTELTNQLIYAFFITWENSFLKVNQKDEKIRLLVIERSFNSVGNFLKKYVGEFFSITNFNELDALTIDLEEIEKQYDVIVTDVMVGKSEELEIFFFHKMIPEAIIDKLNAFLTSALQQEGHHHHHH	soluble
MSMLLGDHPELRSRAREIASLAARVVEQVNSMPAGEQKRLLSEQYPELARFEEQREKGDKGLPPLPGAVEGRVKLRFAPNPDFVIHMGNARPAIVNHEYARMYKGRMVLRFEDTDPRTKTPLREAYDLIRQDLKWLGVSWDEEYIQSLRMEVFYSVARRAIERGCAYVDNCGREGKELLSRGEYCPTRDLGPEDNLELFEKMLEGEFYEGEAVVRMKTDPRHPNPSLRDWVAMRIIDTEKHPHPLVGSRYLVWPTYNFAVSVDDHMMEITHVLRGKEHQLNTEKQLAVYRCMGWRPPYFIHFGRLKLEGFILSKSKIRKLLEERPGEFMGYDDPRFGTIAGLRRRGVLAEAIRQIILEVGVKPTDATISWANLAAANRKLLDERADRIMYVEDPVEMEVELAQVECRAAEIPFHPSRPQRKRRITLCTGDKVLLTREDAVEGRQLRLMGLSNFTVSQGILREVDPSLEYARRMKLPIVQWVKKGGEASVEVLEPVELELRRHQGYAEDAIRGYGVDSRLQFVRYGFVRVDSVEDGVYRVIYTHK	soluble
MSMMDKTVLYFGLVEISFDVPDFIFQKIKEQNNKIRYYSKSINILGSVKFINSNQQFIEYDGNGNILVYGRLKYFKEGISLYYIGEYLAECLLIEHSDTLLIHAAAVYNPLSGHSILLLGDKGAGKTTVAIRLCIEHGYHLIGNDQVIFGSNSGILLTYAGTSFFKIRRTAVLSDNLLFKLFSKFFNRSLQFNKASWDDKISIFPKELGIRTCNFSTEISKIYYIKTDKKEKQIYHSIWSDSLASLYLNELLGRHISGQVACFQSDNGKYFSTMPLINYEKNNRVREQIVKGIFAKQKLFKITAATPAKIAEAIIENVKKNS	not soluble
MSMPATSTKTTKLATSLIDEYALLGWRAMLTEVNLSPKPGLVDRINCGAHKDMALEDFHRSALAIQGWLPRFIEFGACSAEMAPEAVLHGLRPIGMACEGDMFRATAGVNTHKGSIFSLGLLCAAIGRLLQLNQPVTPTTVCSTAASFCRGLTDRELRTNNSQLTAGQRLYQQLGLTGARGEAEAGYPLVINHALPHYLTLLDQGLDPELALLDTLLLLMAINGDTNVASRGGEGGLRWLQREAQTLLQKGGIRTPADLDYLRQFDRECIERNLSPGGSADLLILTWFLAQI	not soluble
MSNAYEEYMRQMVIPMRQELVRSGFEELTTEEAVTEFMENTSGTTLVVVNSVCGCAAGLARPSAGQAVVRAEKQPDHLVTVFAGQDKDATAKMREYFGEIPPSSPSMALLKGKEVVHFIHRHEIEGATMDEIITNLEQAFEKNC	soluble
MSNDFTQAQAPPWRYGFLNLMRRVDVQLCTVPAGNTWQPRMEKFRLGQTPALTFAPREIASVGWQEGRLHISLYSLVLWGPNGPLPLHYTELARNRTESRR	not soluble
MSNGRAVNGFLLDITGVLYNSIYKSDGVAVPKSAEAVNFLYQHSKVKFLSNAKGNSNRNVARRLQRLGINVREEDVITPAPVVAQYCRENKLRPHLFVRDDVLEYFDGIDTSSPNCVVMGEVEEGFSFDRINRAFRILIDMPKPLLITMGNGKFFQRVDGPCIDVGAFAAALKFSTNCEVLNIGKPSRFYFEQGMNALGMKPEEIVMVGDDLMSDVGGAQACGMRGVQVRTGKWRPDFEKMPVTPDLTADCLYDAVKLIADNGFRL	not soluble
MSNQEPYRIPKRTASDPNQSGSQGSCVRPNQEGNVKKEESVNSAPRRMFTLPSSSSTSGAQVFNPIGKCQVQTNSFKIDITKMPKRLLRLSMETRLCGGKTELNLNDGVQAVAGNLNSQEDFTTQEWSQISNYLRKKNAEFKVKISPNGFVYTNGPNSLSDANRQELPRLVEIATSEVLNTPEYLQFGNQTYAVNEPAVSSPDALSEIRSGFDKSVRLVDGENGSTEIIMTIDNKLAPFHKSTSVLKMICDKFEEIVNPARQHRGSQDRRGDRDRGYRGGRSYGHDNRRRSRSRSPQDRGDRGDRGNHHRDHNEDWDERKVKEVERRLLEEPRALGSIADALKGLIVESVHLSKDVNRNSRIKLNEGKNDEQEISVADYYLKQYNYKLKFPYLPMIVSKRFRSETMFPVELLKIVPGQKISIQKINPNVQSAMTGPNSILPSKHVRIVARILESSLKIASNPYLKTFGIRISKDPIKLEAKILSPAQLSFNKYSIMPKPGSVQFEPSREDKFFKPAKIYEVAVIAFRVVSINLSDFCMKLCDLCRRSGLEIRRETRDWIKIENFNPTSTIELKEQMKRLQQSNCSIIIGITEEKKPEVHDVLKYFEAAVGLQTMQIHSKTAGFIISGNGQTAGNVIKKLNLKCGGINYIVEVPQSFNRTVVCSNNSFVQKKLFDGTQFIGFEMTHGAARTLFDKSNGTFDGEPTIVGCAYSLQKATDLGGFNWFQEQNEYRLKNLGTHIPKCLQYYKESSGSLPEKIVIYRTGAGEGDFDRVQQEITEIRSSFAEVQEGYKPSLVVIVANKTSHLRVFPVEIREGDTAMKQNVRSGTCLDGKITSAGREEFVLISQTALISTAKPTKYTIAANDPKWSKNEVMNLTYILSFAHQVCYQPPAVPHILYAADNLAKRGRNNFIQHKKLGELSKTIQATLTKYSDLNIEMDSKELSGELVEDITKSMNVMAIKARNFWA	not soluble
MSNQLSPKPPVNPIVMGKIGSAYGIRGWLRVFSSTEDADSIFDYQPWFIQSKSGWQLVEIEGWKYHNQDLIIKVKGADDRDAANLLTNCEIVVDSSQLPDLGVGDYYWKDLIGCQVVTVTGYELGKIIDMMETGSNDVMVIKANLKDAFGVKERLVPFLTEQVVKRVDLSAQTIEVDWDPGFLEHHHHHH	soluble
MSNRNGGGGGGDYQDVIESLRRTQLIFEEDDNNSSDSAPQANHLSRHQTSNSLVEDMVNHSNGNPPPVPPGITQQQCQIGLTPRMSASPPSAVSTISGTAVLGKTMARVQSNPPGSIPHNTTTTAQGIQSVAPHIPIGGGGATDDSSAEILSVFECPVCLEYMLPPYMQCSSGHLVCSNCRPKLQCCPTCRGPTPSVRNLGLEKIANTVRFPCKFSTSGCPLNFHHADKTEHEELCEFRPYCCPCPGASCKWQGGLSDVMEHLKKIHKSITTLQGEDIVFLATDINLPGAVDWVMMQSCFDYNFMLVLEKQEKYDPAQPTQMFYAVVQLIGSKKEADNFVYRLELSASRRRMSWEATPRSIHEGVVVAIQQSDCLAFDSNAAQLFAENGNLGINVTISRIDTPQRRHPNELENSDLEYD	not soluble
MSNSEPSTSTPSGKTKKRGKKCETSMGKSKKSKNLPRFVKIQPIFSSEKIKETVCEQGIEECKRMLKGHFNAIKDDYDIRVKDELDTDIKDWLKDASSSVNEYRRRLQENLGEGRTIAKFSFKNCEKYEENDYKVSDSTVTWIKPDRTEEGDLMKKFRAPCSRIEVGDISPPMIYWVPIEQSVATPDQLRLTHMPYFGDGIDDGNIYEHLIDMFPDGIHGFSDNWSYVNDWILYKLCRAALKDYQGSPDVFYYTLYRLWPNKSSQREFSSAFPVLCENFAEKGFDPSSLEPWKKTKIAEGAQNLRNPTCYACLAYTCAIHGFKAEIPIEFPNGEFYNAMLPLPNNPENDGKMCSGNCWKSVTMKEVSEVLVPDSEEILQKEVKIYFMKSRIAKMPIEDGALIVNIYVFNTYIPFCEFVKKYVDEDDEESKIRSCRDAYHLMMSMAENVSARRLKMGQPSNRLSIKDRVNNFRRNQLSQEKAKRKLRHDSLRIQALRDGLDAEKLIREDDMRDSQRNSEKVRMTAVTPITACRHAGPCNATAENCACRENGVCSYMCKCDINCSQRFPGCNCAAGQCYTKACQCYRANWECNPMTCNMCKCDAIDSNIIKCRNFGMTRMIQKRTYCGPSKIAGNGLFLLEPAEKDEFITEYTGERISDDEAERRGAIYDRYQCSYIFNIETGGAIDSYKIGNLARFANHDSKNPTCYARTMVVAGEHRIGFYAKRRLEISEELTFDYSYSGEHQIAFRMVQTKERSEKPSRPKSQKLSKPMTSE	not soluble
MSNSFEILMNQLGMPAEMRQAPALAQANIERVVVHKISKVWEFHFVFSNILPIEIFLELKKGLSEEFSKTGNKAVFEIKARSQEFSNQLLQSYYREAFSEGPCASQGFKSLYQNLQVRAEGNQLFIEGSEAIDKEHFKKNHLPNLAKQLEKFGFP	not soluble
MSNTMQGAHYPQMAFDPTWQMHPAYATATAFNPYNVSFDFTRSPNTSGGSDESMSDGSKIDPKRSPKYLEKRMKNNEAAKKSRASRKHREQKNQTENELLKRKNAALEEELKQAKCELAQMQITIRDMSIEREAYRRENEMLKMVNNKFADSKFEPPQPLRDMTNCNLPYKYELLS	not soluble
MSNTQAERSIIGMIDMFHKYTRRDDKIDKPSLLTMMKENFPNFLSACDKKGTNYLADVFEKKDKNEDKKIDFSEFLSLLGDIATDYHKQSHGAAPCSGGSQ	not soluble
MSNVQNASRSSAFAAVEGDHWVESLDDGRHVLIRPLREEDRERERQFINRLSPATRHFRFLGEIKEASPALLDQLMDIDYQQSMAFVALVHEDGELREVGISRYAACCEEGQCECAVTIADDYQGLGLDAVLMRHLIDVARRNGFRQMYSVDSAANRAMRDLCCALGFVGQRDPDDSTQVIHRLAL	not soluble
MSNYTWKQADIQTLISFYETLGEEINPKVQKVQQNSEANSFSEKAKKFGLLDLPIYSKCVDSSQLIAESASRVYHDAKEYMNNGSATEAELYRFVSSILKEVLEPIFNPKEIRNVLKGLITSLVDSRSRDEEIGSDIEKNVKYEVVRFLPESPPNFPGFNDNVSRSITNFIGYFALHTIRHHCYVNFGVDGELKFYQRNMYKKAFDDLRVNKAKPTVSVKPEASLKREPKAETPTLTRVKPEIRNDSDEDFCEIIEPAVKKSKTRQTSESNAKGGKELKDFPEKYMLEDLDKDDLPMNFKTKFRKLVEQNQMLRDEINDYKELIQLKIAEKKQRMG	not soluble
